From patent US20170320919A1 come the findings set out here.

In experiment [1] the target is human polyclonal IgG (Gammanorm) (human). Briefly: SPR (Biacore), retained IgG binding capacity after 100 NaOH cycles against reference Protein L.
For experiment [2] the target is unchanged. Description: SPR (Biacore), ligand amine-coupled to CM5 chip, 1 mg/ml IgG flowed; IgG binding signal left after 100 cycles of 100 mM NaOH, 10 min. A general note: In SPR one partner is held on a chip, and binding of the other changes the refractive index at the surface.
Experiment [3] has as its target Purified Dab prepared from heat-treated E. coli supernatant. Description: column chromatography, ligand coupled to agarose beads at 9.5 mg/ml, 1 mg/ml Dab feed, residence time 4 min.
Experiment [4] concerns the target Purified Fab prepared from a papain-digested IgG mAb. Description: column chromatography, ligand coupled to agarose beads at 9.5 mg/ml, 1 mg/ml Fab feed, residence time 4 min.
Experiment [5] deals with human polyclonal IgG (Gammanorm) (human). Description: SPR (Biacore), retained IgG binding capacity after 96 NaOH cycles against reference Protein L.
The target is the same in experiment [6]. Description: SPR (Biacore), ligand amine-coupled to CM5 chip, 1 mg/ml IgG flowed; IgG binding signal left after 96 cycles of 100 mM NaOH, 10 min.
For experiment [7], the target named is Purified Fab prepared from a papain-digested IgG mAb. Briefly: column chromatography, ligand coupled to agarose beads at 8.8 mg/ml, 1 mg/ml Fab feed, residence time 4 min.
Experiment [8] addresses Purified Dab prepared from heat-treated E. coli supernatant. Description: column chromatography, ligand coupled to agarose beads at 8.8 mg/ml, 1 mg/ml Dab feed, residence time 4 min.
Experiment [9] addresses human polyclonal IgG (Gammanorm) (human). Briefly: SPR (Biacore), retained IgG binding capacity after 96 NaOH cycles against reference Domain 3.
Experiment [10] has the same target. Description: SPR (Biacore), retained IgG binding capacity after 96 NaOH cycles against reference Domain 3 (second series).
The target is the same in experiment [11]. Description: SPR (Biacore), ligand amine-coupled to CM5 chip, 1 mg/ml IgG flowed; IgG binding signal left after 96 cycles of 100 mM NaOH, 10 min (second series, with the Q19 mutants).
In experiment [12] the target is Purified Fab prepared from a papain-digested IgG mAb. Description: column chromatography, ligand coupled to agarose beads at 11.0 mg/ml, 1 mg/ml Fab feed, residence time 4 min.
The target of experiment [13] is Purified Dab prepared from heat-treated E. coli supernatant. Description: column chromatography, ligand coupled to agarose beads at 11.0 mg/ml, 1 mg/ml Dab feed, residence time 4 min.

B1: D3(N10Q, N45A, N60Q)6-cys (designed binder)
chain: PKEEVTIKAQLIYADGKTQTAEFKGTFEEATAEAYRYADLLAKEAGKYTVDVADKGYTLQIKFAGKEKTPEEPKEEVTIKAQLIYADGKTQTAEFKGTFEEATAEAYRYADLLAKEAGKYTVDVADKGYTLQIKFAGKEKTPEEPKEEVTIKAQLIYADGKTQTAEFKGTFEEATAEAYRYADLLAKEAGKYTVDVADKGYTLQIKFAGKEKTPEEPKEEVTIKAQLIYADGKTQTAEFKGTFEEATAEAYRYADLLAKEAGKYTVDVADKGYTLQIKFAGKEKTPEEPKEEVTIKAQLIYADGKTQTAEFKGTFEEATAEAYRYADLLAKEAGKYTVDVADKGYTLQIKFAGKEKTPEEPKEEVTIKAQLIYADGKTQTAEFKGTFEEATAEAYRYADLLAKEAGKYTVDVADKGYTLQIKFAGKEKTPEEC
Turning to B1, the Sample/ref. ratio in experiment [1] was found to be 2.43. The molecule further had a Retained capacity after 100 cycles (%) in experiment [2] of 56%.

B2: D3(N10Q, N45A, N60Q)2 (designed binder)
chain: PKEEVTIKAQLIYADGKTQTAEFKGTFEEATAEAYRYADLLAKEAGKYTVDVADKGYTLQIKFAGKEKTPEEPKEEVTIKAQLIYADGKTQTAEFKGTFEEATAEAYRYADLLAKEAGKYTVDVADKGYTLQIKFAGKEKTPEE
As to B2, the QB10 Dab (dynamic binding capacity at 10% breakthrough) in experiment [3] was 15.4 mg/mL. The QB10 Fab (dynamic binding capacity at 10% breakthrough) in experiment [4] was found to be 19.3 mg/mL. For the same molecule, the Sample/ref. ratio in experiment [1] was found to be 2.56. The molecule also gave a Retained capacity after 100 cycles (%) in experiment [2] of 59%.

B3: Protein L (protein)
chain: AIHNRAKEETPETPETDSEEEVTIKANLIFANGSTQTAEFKGTFEKATSEAYAYADTLKKDNGEYTVDVADKGYTLNIKFAGKEKTPEEPKEEVTIKANLIYADGKTQTAEFKGTFEEATAEAYRYADALKKDNGEYTVDVADKGYTLNIKFAGKEKTPEEPKEEVTIKANLIYADGKTQTAEFKGTFEEATAEAYRYADLLAKENGKYTVDVADKGYTLNIKFAGKEKTPEEPKEEVTIKANLIYADGKTQTAEFKGTFAEATAEAYRYADLLAKENGKYTADLEDGGYTINIRFAGKKVDEKPEE
Consider B3, for which the Sample/ref. ratio in experiment [5] and in experiment [1] was 1 throughout. In addition, the Retained capacity after 96 cycles (%) in experiment [6] was determined as 28%. Also, in experiment [2], the Retained capacity after 100 cycles (%) worked out at 23%.

B4: D3(N10Q, N45A, N60Q)4 (designed binder)
chain: PKEEVTIKAQLIYADGKTQTAEFKGTFEEATAEAYRYADLLAKEAGKYTVDVADKGYTLQIKFAGKEKTPEEPKEEVTIKAQLIYADGKTQTAEFKGTFEEATAEAYRYADLLAKEAGKYTVDVADKGYTLQIKFAGKEKTPEEPKEEVTIKAQLIYADGKTQTAEFKGTFEEATAEAYRYADLLAKEAGKYTVDVADKGYTLQIKFAGKEKTPEEPKEEVTIKAQLIYADGKTQTAEFKGTFEEATAEAYRYADLLAKEAGKYTVDVADKGYTLQIKFAGKEKTPEE
In [7], B4 displayed a QB10 Fab (dynamic binding capacity at 10% breakthrough) of 19.3 mg/mL. Further, the QB10 Dab (dynamic binding capacity at 10% breakthrough) in experiment [8] stood at 15.9 mg/mL. Further, the Sample/ref. ratio in [1] was 2.61. This molecule yielded a Retained capacity after 100 cycles (%) in experiment [2] of 60%.

B5: D3(N10Q, N45A, N60Q)4-cys (designed binder)
chain: PKEEVTIKAQLIYADGKTQTAEFKGTFEEATAEAYRYADLLAKEAGKYTVDVADKGYTLQIKFAGKEKTPEEPKEEVTIKAQLIYADGKTQTAEFKGTFEEATAEAYRYADLLAKEAGKYTVDVADKGYTLQIKFAGKEKTPEEPKEEVTIKAQLIYADGKTQTAEFKGTFEEATAEAYRYADLLAKEAGKYTVDVADKGYTLQIKFAGKEKTPEEPKEEVTIKAQLIYADGKTQTAEFKGTFEEATAEAYRYADLLAKEAGKYTVDVADKGYTLQIKFAGKEKTPEEC
As for B5, in experiment [1], the Sample/ref. ratio is 2.35. The same molecule gave a Retained capacity after 100 cycles (%) in [2] of 54%.

B6: D3(N10Q, N45A, N60Q)2-cys (designed binder)
chain: PKEEVTIKAQLIYADGKTQTAEFKGTFEEATAEAYRYADLLAKEAGKYTVDVADKGYTLQIKFAGKEKTPEEPKEEVTIKAQLIYADGKTQTAEFKGTFEEATAEAYRYADLLAKEAGKYTVDVADKGYTLQIKFAGKEKTPEEC
On to B6, for which the Sample/ref. ratio in experiment [1] came to 2.56. In experiment [2], this molecule displayed a Retained capacity after 100 cycles (%) of 59%.

B7: D3(N45A)1 (designed binder)
chain: PKEEVTIKANLIYADGKTQTAEFKGTFEEATAEAYRYADLLAKEAGKYTVDVADKGYTLNIKFAGKEKTPEE
Take B7: in experiment [6], the Retained capacity after 96 cycles (%) was determined as 44%. Also, the Sample/ref. ratio in [9] turned out to be 1.42.

B8: D3(N10Q, N45A, N60Q)1 (designed binder)
chain: PKEEVTIKAQLIYADGKTQTAEFKGTFEEATAEAYRYADLLAKEAGKYTVDVADKGYTLQIKFAGKEKTPEE
The molecule B8 had a Retained capacity after 96 cycles (%) in experiment [6] of 59%. Also, the Sample/ref. ratio in experiment [9] was found to be 1.9.

B9: D3(Q19A)1 (designed binder)
chain: PKEEVTIKANLIYADGKTATAEFKGTFEEATAEAYRYADLLAKENGKYTVDVADKGYTLNIKFAGKEKTPEE
B9: in experiment [6], the Retained capacity after 96 cycles (%) came to 28%. For the same molecule, in experiment [10], the Sample/ref. ratio is 1.

B10: D3(Q19E)1 (designed binder)
chain: PKEEVTIKANLIYADGKTETAEFKGTFEEATAEAYRYADLLAKENGKYTVDVADKGYTLNIKFAGKEKTPEE
Take B10: the Retained capacity after 96 cycles (%) in experiment [6] was determined as 31%. Also, the Sample/ref. ratio in [10] was 1.11.

B11: D3(N45A, N60Q)1 (designed binder)
chain: PKEEVTIKANLIYADGKTQTAEFKGTFEEATAEAYRYADLLAKEAGKYTVDVADKGYTLQIKFAGKEKTPEE
On to B11, for which the Retained capacity after 96 cycles (%) in experiment [6] worked out at 59%. Further, in [9], the Sample/ref. ratio was found to be 1.9.

B12: D3(N10Q, N45A)1 (designed binder)
chain: PKEEVTIKAQLIYADGKTQTAEFKGTFEEATAEAYRYADLLAKEAGKYTVDVADKGYTLNIKFAGKEKTPEE
In the case of B12, the Retained capacity after 96 cycles (%) in experiment [6] worked out at 48%. Also, in experiment [9], the Sample/ref. ratio came to 1.55.

B13: Domain 3 (D3) (protein)
chain: AQVPKEEVTIKANLIYADGKTQTAEFKGTFEEATAEAYRYADLLAKENGKYTVDVADKGYTLNIKFAGKEKTPEEC
With B13, the results for the Retained capacity after 96 cycles (%) in experiment [6] and in [11] were 31% and 28%, respectively. The Sample/ref. ratio in experiment [9] and in experiment [10] was 1 throughout.

B14: Domain 2 (D2) (protein)
chain: AQVPKEEVTIKANLIYADGKTQTAEFKGTFEEAAAEAYRYADALKKDNGEYTVDVADKGYTLNIKFAGKEKTPEEC
In experiment [6], B14 displayed a Retained capacity after 96 cycles (%) of 22%. Moreover, the Sample/ref. ratio in experiment [9] turned out to be 0.71.

B15: Domain 4 (D4) (protein)
chain: AQVPKEEVTIKANLIYADGKTQTAEFKGTFAEATAEAYRYADLLAKENGKYTADLEDGGYTINIRFAGKKVDEKPEEC
Regarding B15, in [6], the Retained capacity after 96 cycles (%) stood at 26%. Also, the Sample/ref. ratio in experiment [9] stood at 0.84.

B16: Domain 3 tetramer (designed binder)
chain: PKEEVTIKANLIYADGKTQTAEFKGTFEEATAEAYRYADLLAKENGKYTVDVADKGYTLNIKFAGKEKTPEEPKEEVTIKANLIYADGKTQTAEFKGTFEEATAEAYRYADLLAKENGKYTVDVADKGYTLNIKFAGKEKTPEEPKEEVTIKANLIYADGKTQTAEFKGTFEEATAEAYRYADLLAKENGKYTVDVADKGYTLNIKFAGKEKTPEEPKEEVTIKANLIYADGKTQTAEFKGTFEEATAEAYRYADLLAKENGKYTVDVADKGYTLNIKFAGKEKTPEE
B16: the Sample/ref. ratio in experiment [5] was found to be 1.36. Further, in [6], the Retained capacity after 96 cycles (%) was 38%.

B17: D3(N10Q, N45A, N60Q)6 (designed binder)
chain: PKEEVTIKAQLIYADGKTQTAEFKGTFEEATAEAYRYADLLAKEAGKYTVDVADKGYTLQIKFAGKEKTPEEPKEEVTIKAQLIYADGKTQTAEFKGTFEEATAEAYRYADLLAKEAGKYTVDVADKGYTLQIKFAGKEKTPEEPKEEVTIKAQLIYADGKTQTAEFKGTFEEATAEAYRYADLLAKEAGKYTVDVADKGYTLQIKFAGKEKTPEEPKEEVTIKAQLIYADGKTQTAEFKGTFEEATAEAYRYADLLAKEAGKYTVDVADKGYTLQIKFAGKEKTPEEPKEEVTIKAQLIYADGKTQTAEFKGTFEEATAEAYRYADLLAKEAGKYTVDVADKGYTLQIKFAGKEKTPEEPKEEVTIKAQLIYADGKTQTAEFKGTFEEATAEAYRYADLLAKEAGKYTVDVADKGYTLQIKFAGKEKTPEE
Molecule B17 registered a QB10 Fab (dynamic binding capacity at 10% breakthrough) in [12] of 21.1 mg/mL. This molecule also gave a QB10 Dab (dynamic binding capacity at 10% breakthrough) in [13] of 16.7 mg/mL. In experiment [1], the Sample/ref. ratio was determined as 2.52. The Retained capacity after 100 cycles (%) in experiment [2] was 58%.

B18: Domain 1 (D1) (protein)
chain: AQVSEEEVTIKANLIFANGSTQTAEFKGTFEKATSEAYAYADTLKKDNGEYTVDVADKGYTLNIKFAGKEKTPEEC
In [6], B18 had a Retained capacity after 96 cycles (%) of 13%. Moreover, the Sample/ref. ratio in experiment [9] came out at 0.42.
